This note sets out measurements from patent publication US20060239990A1, “Protein Arginine N-Methyltransferase 2 (PRMT-2)” (priority 2003, published 2006).

One assay deals with IκB-α. Nature of the assay: Co-immunoprecipitation with endogenous IκB-α in 293 cells. In kind it is binding, human. Conditions: HA-tagged constructs in 293 cells. The source says: A polyclonal antibody to recombinant PRMT2 was used to examine the association between endogenous PRMT2 and IκB-α in vivo. […] The domain of IκB-α required for association with PRMT2 was mapped using in vivo immunoprecipitation assays where HA-tagged PRMT2 was coexpressed with truncation mutants of His-tagged IκB-α (FIG. 5B) in 293 cells. The ankyrin domain was both necessary and sufficient for this association (FIG. 5D, lanes 1 and 2). The domain of PRMT2 that interacted with endogenous IκB-α was mapped by immunoprecipitation following expression HA-tagged PRMT2 truncation mutants (FIG. 5C). […] When the ratios of PRMT2 or PRMT2-A binding to IκB-α were compared, both interacted with IκB-α with similar affinity.

Another assay deals with T1, RB (Homo sapiens, UniProt P06400).
T1 construct: coding region of RB cDNA was subcloned into pGEX-6P (Amersham/Pharmacia) for generation of GST-RB; made in house
T1 sequence (P06400 1-928): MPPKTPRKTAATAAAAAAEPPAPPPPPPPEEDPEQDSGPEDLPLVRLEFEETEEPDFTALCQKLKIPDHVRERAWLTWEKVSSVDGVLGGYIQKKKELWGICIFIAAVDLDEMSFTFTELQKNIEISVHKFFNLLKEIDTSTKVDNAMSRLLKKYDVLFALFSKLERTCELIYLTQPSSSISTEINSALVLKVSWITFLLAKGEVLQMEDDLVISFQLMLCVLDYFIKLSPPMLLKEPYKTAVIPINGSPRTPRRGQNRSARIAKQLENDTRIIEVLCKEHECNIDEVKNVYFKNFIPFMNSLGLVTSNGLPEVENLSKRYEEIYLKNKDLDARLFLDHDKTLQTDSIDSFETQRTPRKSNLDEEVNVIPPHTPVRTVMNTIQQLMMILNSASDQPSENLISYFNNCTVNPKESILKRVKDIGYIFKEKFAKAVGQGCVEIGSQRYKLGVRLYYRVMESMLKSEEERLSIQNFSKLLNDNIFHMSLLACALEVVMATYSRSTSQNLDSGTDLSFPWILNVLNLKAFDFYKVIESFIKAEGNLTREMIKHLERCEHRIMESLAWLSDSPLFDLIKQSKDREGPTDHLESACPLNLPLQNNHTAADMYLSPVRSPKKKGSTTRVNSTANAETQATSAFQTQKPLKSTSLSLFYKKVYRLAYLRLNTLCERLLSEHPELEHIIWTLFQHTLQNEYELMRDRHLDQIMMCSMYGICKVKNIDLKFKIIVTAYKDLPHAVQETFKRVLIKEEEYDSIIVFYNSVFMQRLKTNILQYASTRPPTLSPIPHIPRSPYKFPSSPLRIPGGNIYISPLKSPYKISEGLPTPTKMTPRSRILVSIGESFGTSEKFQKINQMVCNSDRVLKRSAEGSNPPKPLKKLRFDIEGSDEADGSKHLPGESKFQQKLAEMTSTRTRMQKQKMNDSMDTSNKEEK
As to the kind of experiment: In vitro binding assay with GST-RB. Conditions: S35-labeled in vitro translated protein. The protocol: The crude cell lysate of the GST-fusion proteins was prepared and purified according to the manufacture's protocol (Amersham/Pharmacia). [^35S]-methionine-labeled protein was produced by in vitro transcription/translation using the TNT T7-coupled reticulocyte lysate system (Promega). [^35S]-methionine-labeled protein and GST-fusion protein bound to glutathione sepharose 4B beads were incubated in 500 μl of HNE buffer (50 mM Hepes, pH 7.8, 150 mM NaCl, 1 mM EDTA, 1 mM DTT, 1% NP40, and 1× protease inhibitor mix (Complete: Roche)) at 4° C. for 1 hour. Beads were washed four times with HNE buffer, and then analyzed on an SDS-PAGE gradient gel (4-15%). For the detection of endogenous PRMT-2 interaction with RB, MEFs were lysed with WCL buffer (50 mM Hepes, pH 7.8, 400 mM NaCl, 2 mM EDTA, 1 mM DTT, 0.2% NP40, 10% Glycerol, 20 mM α-glycerophosphate, 5 mM NaF, 0.1 mM NaVO4, and 1× protease inhibitor mix). Then, 1 mg of whole cell extracts were incubated with HNE buffer without DTT and 3 μg of antibodies as indicated. The immune complexes were isolated using protein G beads, and washed four times with HNE buffer. The precipitated protein was boiled with SDS-loading buffer and resolved on SDS-PAGE. For immunoprecipitation of HA-tagged protein, transfected cells were lysed with RIPA buffer (phosphate buffer saline containing 1% NP40, 0.5% sodium deoxycholate, 0.1% SDS, and 1× Complete), and 100 μg of whole cell lysates were immunoprecipitated with anti-HA antibodies and washed in RIPA buffer. Western blot analysis was performed as described in Tanner et al. (1998). Circ Res, 82, 396-403.
To test whether PRMT family members interact with RB, S^35-labeled in vitro translated PRMT1, PRMT2, PRMT3, and PRMT4 (CARM1) were incubated with GST-RB fusion proteins or control GST, and co-precipitated labeled proteins were resolved by SDS-PAGE. […] An equal amount of GST-RB and GST were loaded in each lane, verified by Coomassie staining (FIG. 8B).

A further assay has as its system E2F1. As to the kind of experiment: E2F reporter assay (GAL4-E2F1 activator, luciferase). Format: cell-based. As for the experimental part:
HeLa cells, U2OS cells, and Saos2 cells were seeded at a density of 5×10^4 per well in 24-well plates. Cells were transfected 24 hours later with the indicated plasmid and with 20 ng of pRL-TK (Promega) as an internal control to normalize transfection efficiency. The amount of CMV promoter in the transfection was kept constant using empty vector. Cells were harvested at 30 or 36 hour after transfection and luciferase activity was analyzed by Dual-Luciferase Reporter Assay System (Promega). Luciferase activity was measured as a ratio of Firefly to Renilla. To study endogenous E2F activity in MEFs, PRMT-2^+/+ or PRMT-2^−/− MEFs were seeded at a density of 3×10^5 per well in 6-well plates. Cells were transfected 24 hours later with 3 μg of E2F4B-Luc and 10 ng of pRL-TK plasmid. Cells were harvested at 36 hour after transfection and analyzed for luciferase activity as described above.
A general note: Reporter assays use an easily measured gene product as a stand-in for the process of interest.

Sequence of IκB-α (P25963 whole entry, the tested form may be a part): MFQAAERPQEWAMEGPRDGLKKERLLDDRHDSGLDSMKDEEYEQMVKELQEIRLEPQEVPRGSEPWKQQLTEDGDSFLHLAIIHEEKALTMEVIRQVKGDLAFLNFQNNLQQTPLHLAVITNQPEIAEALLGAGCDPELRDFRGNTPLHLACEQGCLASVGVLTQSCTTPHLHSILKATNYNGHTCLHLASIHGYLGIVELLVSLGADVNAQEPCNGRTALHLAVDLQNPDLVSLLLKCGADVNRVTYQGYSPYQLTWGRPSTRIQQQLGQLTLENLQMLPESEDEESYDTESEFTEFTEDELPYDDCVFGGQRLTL

B1: PRMT2: human PRMT-2 polypeptide, SEQ ID NO:2, expressed from pVR1012 vector with HA-tag (protein, listed as Homo sapiens)
chain: MATSGDCPRSESQGEEPAECSEAGLLQEGVQPEEFVAIADYAATDETQLSFLRGEKILILRQTTADWWWGERAGCCGYIPANHVGKHVDEYDPEDTWQDEEYFGSYGTLKLHLEMLADQPRTTKYHSVILQNKESLTDKVILDVGCGTGIISLFCAHYARPRAVYAVEASEMAQHTGQLVLQNGFADIITVYQQKVEDVVLPEKVDVLVSEWMGTCLLFEFMIESILYARDAWLKEDGVIWPTMAALHLVPCSADKDYRSKVLFWDNAYEFNLSALKSLAVKEFFSKPKYNHILKPEDCLSEPCTILQLDMRTVQISDLETLRGELRFDIRKAGTLHGFTAWFSVHFQSLQEGQPPQVLSTGPFHPTTHWKQTLFMMDDPVPVHTGDVVTGSVVLQRNPVWRRHMSVALSWAVTSRQDPTSQKVGEKVFPIWR
modifications: HA tag
In the case of B1, the “association with endogenous IκB-α” value with IκB-α is “interacted”. The “binding to RB” value with RB is “directly interacts with RB”. Also, the E2F1-induced promoter activity entry with E2F1 (HeLa cells, in the presence of the E2F1 activator) is given as “repressed E2F1-induced promoter activity in a dose-dependent manner”. Further, in the assay with E2F1 (Saos 2 cells (RB-deficient), without RB), the E2F1 activity entry is listed as “did not repress E2F1 activity”. In the assay on E2F1 (Saos 2 cells co-transfected with RB), the E2F repression result was “E2F repression by PRMT2 in a dose-dependent manner was observed”.
